Assay results published in patent US20230141177A1.
Changes are numbered by the printed parent chain. Names and notes keep the numbering of the source.

B1: parental antibody, PMN310 humanized antibody variant VH2/Vk5 (human IgG4 S241P / kappa) (antibody, V domains shown)
VH: QVQLVQSGAEVKKPGASVKMSCKASGYSFTSYWINWVKQRPGQGLEWIGDVHPGRGVSTYNAKFKSRATLTLDTSISTAYMELSSLRSEDTAVYYCSRSHGNTYWFFDVWGQGTTVTVSS
VL: DVLMTQSPLSLPVTLGQPASISCRSSQSIVHSNGNTYLEWYQQRPGQSPRLLIYKVSNRFSGVPDRFSGSGSGTDFTLKISRVEAEDVGVYYCFQGSHVPFTFGQGTKLEIKR
B2: Clone 5 (affinity matured VH with parental Vk, human IgG4 S241P / kappa) (antibody, V domains shown)
VH: B1 VH with S97A, S99G, H100A, G101L, N102S, T103P
VL: B1 VL
B3: Clone 14 (affinity matured VH with parental Vk, human IgG4 S241P / kappa) (antibody, V domains shown)
VH: B1 VH with S97A, R98K, H100D, G101A, N102S, T103G
VL: B1 VL
B4: Clone 4 (affinity matured VH with parental Vk, human IgG4 S241P / kappa) (antibody, V domains shown)
VH: B1 VH with S97A, S99V, H100S, G101P, N102T, T103G
VL: B1 VL

What follows are binders tested against AβO in the low molecular weight (LMW) fraction of pooled soluble human AD brain extract (~8 kDa to ~70 kDa) (human) (UniProt P05067) (assay: SPR; BRU on LMW fraction divided by BRU on HMW fraction; Study 1).

LMW/HMW ratio | Binder
1 | B1
1 | B2
1.1 | B3
1.32 | B4

Each binder was assayed against AβO in the low molecular weight (LMW) fraction of pooled soluble human AD brain extract (~8 kDa to ~70 kDa) (human) (UniProt P05067) (assay: SPR; BRU on LMW fraction divided by BRU on HMW fraction; Study 2).

LMW/HMW ratio | Binder
1.31 | B1
1.43 | B2
1.47 | B3
1.55 | B4

The binders below were run against AβO in the low molecular weight (LMW) fraction of pooled soluble human AD brain extract (~8 kDa to ~70 kDa) (human) (UniProt P05067) (assay: SPR; BRU on LMW fraction divided by BRU on HMW fraction; Study 3).

LMW/HMW ratio | Binder
1.52 | B1
1.2 | B2
1.45 | B3
1.54 | B4

The binders below were run against Aβ aggregates in the high molecular weight (HMW) fraction of pooled soluble human AD brain extract (>70 kDa to ~700 kDa) (human) (UniProt P05067) (assay: SPR, immobilized antibody, brain extract fraction at 100 µg/ml injected; Study 1).

Binding to HMW (BRU) | Binder
27 | B1
15 | B2
16 | B3
21 | B4

The binders below were run against AβO in the low molecular weight (LMW) fraction of pooled soluble human AD brain extract (~8 kDa to ~70 kDa) (human) (UniProt P05067) in the same assay as above.

Binding to LMW (BRU) | Binder
27 | B1
15 | B2
18 | B3
28 | B4

Each binder was assayed against Aβ aggregates in the high molecular weight (HMW) fraction of pooled soluble human AD brain extract (>70 kDa to ~700 kDa) (human) (UniProt P05067) (assay: SPR, immobilized antibody, brain extract fraction at 100 µg/ml injected; Study 2).

Binding to HMW (BRU) | Binder
13.5 | B1
6.57 | B2
7.55 | B3
11.2 | B4

These binders were tested against AβO in the low molecular weight (LMW) fraction of pooled soluble human AD brain extract (~8 kDa to ~70 kDa) (human) (UniProt P05067) in the same assay as above.

Binding to LMW (BRU) | Binder
17.7 | B1
9.42 | B2
11.1 | B3
17.3 | B4

What follows are binders tested against Aβ aggregates in the high molecular weight (HMW) fraction of pooled soluble human AD brain extract (>70 kDa to ~700 kDa) (human) (UniProt P05067) (assay: SPR, immobilized antibody, brain extract fraction at 100 µg/ml injected; Study 3).

Binding to HMW (BRU) | Binder
5 | B1
7.88 | B2
4.38 | B3
6.77 | B4

What follows are binders tested against AβO in the low molecular weight (LMW) fraction of pooled soluble human AD brain extract (~8 kDa to ~70 kDa) (human) (UniProt P05067) in the same assay as above.

Binding to LMW (BRU) | Binder
7.6 | B1
9.45 | B2
6.34 | B3
10.1 | B4
